According to a protein production outcome set (Wang et al. 2014):

Experiment: label from the status in PepcDB records

| Sequence | protein production |
| --- | --- |
| MIEEEAIVTQVEEHAIWVEKFRKSACGSCAGGCSTSLVARLLGGKPLRLRIATEARVAPGDRVIIGVEEGALLAGSFRMYLFPLFSLIGGALLGKLLAAQGLSATAEAGSIAGGLVGLGLTLVLLKYCPSLQRQNLHPVFIRRISR | failed |
| MTTIDIIILIIIGAGVVAGFMKGFIRQLASILGLVVGLLAAKALYATLAEKLCPAVTDSMTVAQVLAFIVIWIAVPLIFTLVASLLTKAMEAISLGWLNRWLGSGLGALKFLLLTSLVICVIEFIDSDNKLISATKKSESLLYYPMETFAGIFFPAAKNITQQYILDNKDATRRTQ | failed |
| MNKGFILKALFLLCFLFSQTAQGQSFTPGEIWPDNHQVHINAHGGGILYENGTYYWFGEHKTEGEAGNLANVGVHCYSSDDLYHWKDCGIALSVIENDPGHPISKGCILERPKVIYNPLTKKYVMWFHLEPKGAGYSGALSGIALSDRVTGPYTFLKAVRPNAGSWPINVLPIHKTTRRPSAEEERQCTGGSLPAHPDSLNILGRDMEQGQMARDMNLFVDDDGKAYHIYSSEENSTLHIAELDPTYTGYTGKYIRVFINRFMEAPAMFKKDGNYYLIMSGCSGWNPNAARSAIASSIWGEWKELGNPCIGQDADLTFHSQSTYILPVQGKKNQFIYMGDRWTPQNAIDGRYIWLPIHFEGPKPIIEWKDSWTLD | failed |
| MGILSGNPQDEPLHYGEVFSTWTYLSTNNGLINGYRSFINHTGDEDLKNLIDEAIQAMQDENHQLEELLRSNGVGLPPAPPDRPAARLDDIPVGARFNDPEISATISMDVAKGLVTCSQIIGQSIREDVALMFSQFHMAKVQFGGKMLKLNKNKGWLIPPPLHSDRPIKE | not failed |
| MSAYPPGAAPSDPVDPVTLEAGQTAKVTRPTGRFMLGHPARLIALGFGSGLSPVSPGTVGTLLGWLSFIVISKWIDPTTWLWIIAGGFVIGIWACLRTARDMGVYDHGSMVWDEIVAFWLVLLFVMPTGFWGQFAAFVWFRFFDIVKPAPIRYYDRTLKGPGFTGAFGVMFDDIFAAFYTLLVFALWRSI | failed |
| MGLRMSESAKPYFAMVCLQFGYAGMNLVTKTVLDRGMSHYVLVAYRNAFATAAIAPFALLSERKVRSKMTFPIFMRIFLLALLGPVIDQNLYYIGLKLTSPTFSSAVSNIVPAITIILATLFRMEKVEMRKVRCLVKVMGTLVTVVGSILMIFYKGPFINFFRSHLTAASSPPTADYLKAAVFLLLASLSWASFFVLQAATLKKYSAHLSMSTMVCFMGTLQSLALAFVMEHNPSALNIGFDMNLLASAYAGIMSSSIAYYVQGLMMQRKGPVFVTAFNPLIVVIVSIMSFFVLGQGIYLGGYVNNNRVIGVVVLMVGVYAVLWGKHVDDDGEETRHEDNVVAVKCCSGNNGLTIMPKIDEADEEDVETGKATSEKESSVPEVVVVVFCSENVHSVSRPN | failed |
| MYADEQFKQVFQCIRCAACLNVCPAFQLVGGHVYGHIYTGGIGTILTAFLNSEKDAENPQNLCLQCGKCTEVCAGKLDIPGMILEIRNRIGDQKGLPMTPLEHHHHHH | failed |
| MFIYFPKNYVWSMSTVIAATHGGSIGEIDEFCRPLLDKSSDDADVGTVEFLHAWIGGADKLIKMAEQDLEKNRELSAAKKYYRAALYYLIAERMQEQGHPERLKVYKRYLELAELYRKYKKDDVKRVEIPYQNSHLSAIYAKGKTTDEKQAIVVMMNGLDSTKELMSYCPLADELVERGISVLMVDQPGTGEAIRLQDLRAVYNSEIWASPIVDWLCEQPEIDQHRIAAFGISLGGYYCPRAVAFEPRFCCAAIWGANHDWRAVQHARLKREGENPVPHYWKHVEWVFGAQDQKEFFEIAENMHLNGVLDRIKVPFLVTHGEKDRQIPLKYAYETYDQLINSPDKELLVIDDEMGGVEHSSIDNPLNAGAYIADWLAEHLNGKTSK | failed |
| MMAPNQFSSGDVIADRRADYARMLAESGDYPAAAELMEQALELAPRWTAGWFRFGEYHEKAGETAKAVAAYEKVAELDAEGLFAAELKLAVLGAAETPEQPPSRYVEGLFDDYADRFETSLVEKLDYSVPQKLAELIGKAATGDAFDTIVDIGCGTGLLGIEIRSLAKRLEGFDISQNMLAKADEKSLYDHLGQADLSLDAEASGLFTPVLTQHRADLVAAADVMMYLGSLETVMPLVSALLKPSGFFAFSVEDAGDEQGFVLRESLRYAHSKSYVIDLLERSGFSPMEIRKTTIRKDAGKPLSGILFLARAKA | failed |
| MIEVVCNDRLGKKVRVKCNTDDTIGDLKKLIAAQTGTRWNKIVLKKWYTIFKDHVSLGDYEIHDGMNLELYYQ | not failed |
| ASNSQLNAMAHQIQEMFPQVPYHLVLQDLQLTRSVEITTDNILEGRIQVPF | not failed |
| MVQDQIRYDILVQDALRGVIRKVLSEVAKAGLPGSHHFFITFLTNAPGVKISTRLKSRYPEQMTIVLQHQFRDLNVSETAFEVTLSFREVSEKLVIPFHSIQVFYDPVAAFEAAFDLPSNLNSKEGENLENIASTPVILSDTQKKEKKFPKEQISKTNKDSSNNDTKQSADVVSLDSFRKKLEHHHHHH | not failed |
| MLYFEDLRPGQLFLSAEHTLSEQEIIAFARQFDPQPFHTDPEAARQTFFNGLAASGWHTSSLSMRLVAESELGRAANGLIGMQIDKMRWPQPSRPGDTLQVEVEVLDKRRSSSQPGFGVVKVSWTTRNQRGETAMQLECAIWLQCRSKAEAAAPELAGAK | failed |
| MEIFEDVVRCGGFRAAALGRGVSSSAISQSISVLEEALGIRLLNRTTRSVAPTEAGEQLLERLRPALYEIRTAVDDLNQLRERPSGTVRINAPGPAADHVLCPLTFEFMKIYPDVNVEIVSDAAIIDIVEQGFDAGVRFGNQLAQDMIAMPLGPALRYAIVASPDYLRKRGRPHSPRDLLQHDCIRRRFPGGTMVTWKFARDGDEVEITPKGRLTLSSAHQELQAALAGSGIAHLFEDYVRDDVEQGRLVELLCDWKQKLPSWYLYYPSRRHTSAAMRAFLEYIRNQRQHPDRR | failed |
| AIATSALENYINRTVAVITSDGRMIVGTLKGFDQTINLILDESHERVFSSSQGVEQVVLGLYIVRGDNVAVIGEIDEETDSALDLGNIRAEPLNSVAH | not failed |
| MAKPNIDELNQILTSYQNTINDTLQLFEQVPSPTQDKLYWNDVLQISDHLSKQATIVGMLWITGEPPKAEAMKETMEAYFNALQGFLLHCHGSMVGAGTTLSSTIHASVKQIVDSSFRLLQGSVSLYEGSYEKGRKPTIPQLAGAVWEACSNLKNVPETNIKAIGRAMAHVAVSMKDVLREMKELKPASSSPDHNVSTNSDDDDLGDELSPEEFEVAKMVADIVSETLVVIKELIRAITCMIKLENPKDNSEFVDSFEKLLKLCQGIGVQIDELGACVYPPQEFGLMKQTVENMRESIGEIESDVKSSKNSSSEALSGSCRRLQSLIEHMVTELDTRIEAEVVYKMQNVTL | failed |
| MSQDRIAGIDVATNSTDISNIINEMIICIKGKQMPEVHEKAMDHLSKMIAANSRVIRDSNMLTERECVQKIMKLLSARYKKEEGKTVSDHFNELYRKLTLTKCDPHMRHSLMTHLLTITDNSDAEKAVASEDPRTQCDNLTQILVSRLNSISSSIASLNEMGVVNGNGVGAAAVTGAAAVTGAAAVTGAAAVTGAAASHSYDATQSSIGLRKQSLPNYLDATKMLPESRHDIVMSAIYSFTGVQGKYLKKDVVTGRFKLDQQNIKFLTTGQAGMLLRLSELGYYHDRVVKFSDVSTGFNAIGSMGQALISKLKEELANFHGQVAMLHDEMQRFRQASVNGIANKGKKDSGPDAGDEMTLFKLLAWYIKPLHRMQWLTKIADACQVKKGGDLASTVYDFLDNGNDMVNKLVEDFLTAICGPLVRMISKWILEGGISDMHREFFVKSIKDVGVDRLWHDKFRLRLPMLPKFVPMDMANKIFMTGKSINFLREICEEQGMMKERDELMKVMESSASQIFSYTPDTSWHAAVETCYQQTSKHVLDIMVGPHKLLDHLHGMRRYLLLGQGDFISILIENMKNELERPALDIYANDLTSMLDSALRCTNAQYDDPDILNHLDVIVQRPFNGDIGWNIISLQYIVHGPLAAMLESTMPTYKVLFKPLWRMKHMEFVLSMKIWKEQMGNAKALRTMKSEIGKASHRLNLFTSEIMHFIHQMQYYVLFEVIECNWVELQKKMQKATTLDEILEAHEKFLQTILVGCFVSNKASVEHSLEVVYENIIELEKWQSSFYKDCFKELNARKELSKIVEKSEKKGVYGLTNKMILQRDQEAKIFAEKMDIACRGLEVIATDYEKAVSTFLMSLNSSDDPNLQLFGTRLDFNEYYKKRDTNLSKPLTFEHMRMSNVFAVNSRFVICTPSTQE | failed |
| MLIDKKTQAGVKSIIGWQHCAHFYRQNKLLGLFTKIKRPTKGQRMEEELKQQFDEMGVEPADAVLGRCAELAITYNIHDATEFVEQWMAFSLSHLQGEDPAIENLGDFERKVLQLRKDKAGYKATGQKAKSYGSPSVQDTSSLATYGVMEDDPMLDDYVSESAVDSSALHTPKAKKQSDRTANLKGAALFSPASYTPQSAKRKAGLETPSNSVAGKPGDIVDTFGHPKLLAGSSWQSQMEHTVPVTQKLLHNDAPLTIANLGYMNDLLTDRCHNLRVRFNQTGPALVDKKLGQAGAAECIWYPQDRQVLQSAGGLHAVGMIHSEDDGPLDAHSAFMAVLDDDVEDEMDPTLTLNFSRVKSASIFPGQVVLAKGFIPRGKTFMVEEIHTERKLTPATPLQIDRELQFVVASGPFTDSTDLFYEPLHDLLKYLKDHRPDVLVLTGPFLDADHKMVGELAETFDTFFEKMIGGIMESIGSHTAVLVVTSQKDAMALSVYPTPPPALRRTYPNLYMLPDPSLVDLDGFTLGVTSTDVVDHLLSHEFAVNAGERMHRAINHLFHQGSFYPLYPPADEDMAYDSQLALKYAQLKQLPNVLILPSDQRHFIRLVNDCLVINPGRVADKKGGTFARFLVAPSVPGKAANMFNSVACQVQRI | failed |
| MIMTSDIKLLDYLRVRRSTPALQLSEPGPSKGEIEEILRLAVRVPDHGKLAPWRFVVYRGEERVRLSEAALRIALEKNPDLDLQQQEAERTRFTRAPVVIAVISTAKPHFKIPEWEQVMSAGAVCLNVIFAANASGFAANWLTEWLAFDPAFLAEIGVSAEEKVAGYIHIGSTTFPPVERPRPELADVVTWVGDV | not failed |
| MAWMFLLLAAAFEVTFAMGMKYAEGFTRPWPSLLTVVAAVGGIYFLTLAMRELPVSVAYPIWTAIGSLGTVLLGCLLLGESLTAVKLVSVGLIVAGVAGLK | failed |
| MKNYLQILRETLKAMLSKPMWLMVVASVCITSLPYMNHTALDLPVAVVDEDHSDVSRELVRLLDSAPKVAVVGYDSLPQAKRDLAWRKLYAIIVIPLNFEKRLLRGEALVIPYFGDATNRMANGQIQQDISAVYSALTNRYNAALLEREGFTATQAQVVLSPLVGQLTDLFNPGISFAAIVLPGLLSLILQHSLLLGCTRGNIMLRGGTPRYMRQPLSTRFGRYSAQLLIWTVLAMLFYVIWPHLLGYRQSASFFMLLGIVLPFLIAVIALSEFIAELLPTEESVYLTMTFITLPLFYMAGYSWPEQAMPDWVRWLADAIPSTWAIRAIAEMNQMDLPLREVSDHALVLLGMAATYALLGTLLYQYRNWRWDNVKGW | failed |
| AIAMFTLPLLFPIITLPEPTGKYTVGTKAFHLIDTNRKETTVPNNHGNRELMIQVYYPAEKGSGKPSAYFENIDALAEQLAVTKGAPYIVTTHLGLTKTHSYQDAKPLQVKEKFPLLLFGHGMELYGQQNTFQLEELASQGYVVIALNFTGYAATTIFPNGKRIDSVPIEFTPNALNNMVRNWEQDTTFILNEVIKGNFDKNFTAIANLIDDDKIGMFGHSYGGATAAQMLVKDNRIKAAIDMDGGLYGDPMPKDGPQKPFMLMNAEATIQYMKEAENQKTDGIQDELFEISYLRNKTIEKPGAYTVVLPKTNHNSFTDLAAFSPIINEPGEDVSANYTLINKLVTSFFDQTLKG | failed |
| MFMAENRLQLQKGSAEETIERFYNRQGIETIEGFQQMFVTKTLNTEDTDEVKILTIWESEDSFNNWLNSDVFKEAHKNVRLKSDDDGQQSPILSNKVFKYDIGYHYQK | not failed |
